# Values quoted from earlier work in patent US10227617B2, “Sequestration of carbon dioxide with hydrogen to useful products” (UNIVERSITY OF GEORGIA RESEARCH FOUNDATION, INC., priority 2012, dated 2019).
# B1: Msed_1456: M. sedula 3-hydroxypropionate:CoA ligase, SEQ ID NO:6 (protein, listed as Metallosphaera sedula)
# chain: MFMRYIMVEEQTLKTGSQELEEKADYNMRYYAHLMKLSKEKPAEFWGSLAQDLLDWYEPWKETMRQEDPMTRWFIGGKINASYNAVDRHLNGPRKFKAAVIWESELGERKIVTYQDMFYEVNRWANALRSLGVGKGDRVTIYMPLTPEGIAAMLASARIGAIHSVIFAGFGSQAIADRVEDAKAKVVITADAYPRRGKVVELKKTVDEALNSLGERSPVQHVLVYRRMKTDVNMKEGRDVFFDEVGKYRYVEPERMDSNDPLFILYTSGTTGKPKGIMHSTGGYLTGTAVMLLWSYGLSQENDVLFNTSDIGWIVGHSYITYSPLIMGRTVVIYESAPDYPYPDKWAEIIERYRATTFGTSATALRYFMKYGDEYVKNHDLSSIRIIVTNGEVLNYSPWKWGLEVLGGGKVFMSHQWWQTETGAPNLGYLPGIIYMPMKSGPASGFPLPGNFVEVLDENGNPSAPRVRGYLVMRPPFPPNMMMGMWNDNGERLKKTYFSKFGSLYYPGDFAMVDEDGYIWVLGRADETLKIAAHRIGAGEVESAITSHPSVAEAAVIGVPDSVKGEEVHAFVVLKQGYAPSSELAKDIQSHVRKVMGPIVSPQIHFVDKLPKTRSGKVMRRVIKAVMMGSSAGDLTTIEDEASMDEIKKAVEELKKELKTS
# Settings: reported data, FIG. 4; cited from earlier work
molecule,measurement,value
B1,activity on 3-hydroxybutyrate,> 1%
